Measured values taken from patent US20170015742A1 (published 2017).

Assays:
[1] = biological target: T1, recombinant human VEGF165 (human, UniProt P15692 207-395); test: cell-based or functional assay
[2] = biological target: recombinant human PDGF-BB (human, UniProt P01127 82-190); test: cell-based or functional assay
[3] = biological target: T1, recombinant human VEGF165; test: competition ELISA: DVD-Ig titrated against biotinylated hVEGF165 binding to coated hVEGFR2-Fc
Method: To identify molecules that could block the binding of hVEGF₁₆₅ to the hVEGF-R2 (KDR/Flk-1) receptor, a competition ELISA was performed. […] Plates were then washed four times with wash buffer (TBS, 0.05% Tween-20) and blocked with Superblock blocking buffer (Thermo Scientific, cat#37535). […] The pre-incubated sample/hVEGF₁₆₅ complex was added to the coated plate at 50 μL in duplicate and incubated for 30 minutes at 25° C. with shaking. Following incubation, plates were washed four times with wash buffer. Streptavidin-polyHRP-40 (Fitzgerald cal#65r-s104phrp) was diluted in assay diluent (10% Superblock containing 0.05% surfactamps) and added to plates (50 μL) for 45 minutes at 25° C. with shaking. Plates were washed four times with wash buffer and developed with the addition of Enhanced K-blue TMB substrate (Neogen cat#308177). The reaction was stopped with 2N sulfuric acid (VWR, cat# BDH3500-1) and the absorbance was read at 450 nm-570 nm. A decrease in observed optical density indicates the test molecule is blocking the hVEGF₁₆₅ binding to the hVEGF-R2-Fc. Data was analyzed using Softmax Pro 4.8 software and IC₅₀ values calculated using a sigmoidal dose response (variable slope) fit in GraphPad Prism 5.

[4] = biological target: T2, recombinant human PDGF-BB (human, UniProt P01127 82-190); test: cell-based or functional assay; remark: listed apart in the source
T2 sequence (P01127 82-190 limits assumed): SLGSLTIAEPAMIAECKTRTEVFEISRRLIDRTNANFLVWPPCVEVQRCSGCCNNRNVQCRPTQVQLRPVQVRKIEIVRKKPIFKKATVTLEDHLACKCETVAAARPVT

[5] = biological target: T2, recombinant human PDGF-BB; test: competition ELISA: blocks biotin-hPDGF-BB binding to coated hPDGF-Rβ-Fc
Method: Plates were then washed four times with wash buffer (TBS, 0.05% Tween-20) and blocked with Superblock blocking buffer (Thermo Scientific, cat#37535). During the blocking step, supernatants, antibodies, benchmark compounds or DVD-Ig were diluted in assay diluent (10% Superblock containing 0.05% surfactamps) and an eight point titration of each sample molecule was performed. […] Following incubation, plates were washed four times with wash buffer. Detection reagent Streptavidin-polyHRP-40 (Fitzgerald, cat#65r-s104phrp) was diluted in assay diluent and added to plates (50 μL) for 45 minutes at 25° C. with shaking. Plates were washed four times with wash buffer and developed with the addition of Enhanced K-blue TMB substrate (Neogen, cat#308177). The reaction was stopped with 2N sulfuric acid (VWR, cat# BDH3500-1) and the absorbance was read at 450 nm-570 nm. […] Data was analyzed using Softmax Pro 4.8 software and IC₅₀ values calculated using a sigmoidal dose response (variable slope) fit in GraphPad Prism 5.

Human PDGF-BB [6] = biological target: T3, Human PDGF-BB (human, UniProt P01127 82-190); test: SPR (Biacore), antibody captured via anti-human Fc, antigen in solution
T3 construct: Recombinant human PDGF-BB, a homodimer of two B chains; also called hPDGF-BB; huPDGF-BB
T3 sequence (P01127 82-190 limits assumed): as above
Procedure, shortened: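 Antibodies or DVD-Ig molecules (1 μg/ml) were captured on an anti-human Fc CM5 surface, with antigen injected in solution and responses referenced to the capture-only surface. Rate constants came from a global 1:1 Langmuir fit, and KD = koff/kon.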

Human PDGF-BB [7] = biological target: T3, Human PDGF-BB; test: SPR (Biacore), antibody captured via anti-human Fc, antigen in solution; footnote *: heterogeneous off-rate
Method: For example, approximately 9000 RU of goat anti-human Fc specific polyclonal antibody (Thermo Fisher Scientific Inc., Rockford, Ill.) diluted in 10 mM sodium acetate (pH 4.5) is directly immobilized across a CM5 research grade biosensor chip using a standard amine coupling kit according to manufacturer's instructions and procedures at 25 μg/ml. Unreacted moieties on the biosensor surface were blocked with ethanolamine. For kinetic analysis, rate equations derived from the 1:1 Langmuir binding model were fitted simultaneously to multiple antigen injections (using global fit analysis) with the use of Scrubber 2 (BioLogic Software), Biacore Biaevaluation 4.0.1 software or Biacore T100 Evaluation software. Purified antibodies or DVD-Ig molecules were diluted in running buffer for capture across goat anti-human Fc reaction surfaces. Antibodies or DVD-Ig molecules to be captured as a ligand (1 μg/ml) were injected over reaction matrices at a flow rate of 10 μl/minute. During the assay, all measurements were referenced against the capture surface alone (i.e., with no captured antibody or DVD-Ig molecule). […] The equilibrium dissociation constant KD (M) of the reaction between antibodies and the target antigen was then calculated from the kinetic rate constants by the following formula: KD=Koff/Kₒₙ. Binding was recorded as a function of time and kinetic rate constants were calculated.

T1 sequence (P15692 other isoform, or with tags, fused parts or gaps limits assumed): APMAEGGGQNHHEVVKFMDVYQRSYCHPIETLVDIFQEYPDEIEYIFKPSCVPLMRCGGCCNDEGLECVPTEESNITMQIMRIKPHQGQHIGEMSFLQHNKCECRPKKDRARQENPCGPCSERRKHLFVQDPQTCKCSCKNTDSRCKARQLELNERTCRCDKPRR

Binder	Phospho-Tyr751/hPDGF-BB Neutralization [4] [nM]	huPDGF-BB Neutralization Potency (nM) in NIH-3T3 Cells [4] [nM]	IC50 [5] [nM]	kon (Human PDGF-BB [6]) [M⁻¹ s⁻¹]	Kd (Human PDGF-BB [7]) [nM]	further results
4G8.3-LS-9E8.4 DVD-Ig (PR-1564013) (bispecific antibody, human IgG1, kappa, L234A L235A, DVD-Ig, outer hBDB-4G8.3 (VEGF), inner hBDI-9E8.4 (PDGF); IgG1 L234A, L235A / kappa) heavy: not shown light: DTVLTQSPATLSLSPGERATLSCRASESVSTHMHWYQQKPGQAPRLLIYGASNLESGVPARFSGSGSGTDFTLTISSLEPEDFAVYFCQQSWNDPFTFGQGTKLEIKRTVAAPEFVLTQSPGTLSLSPGERATLSCERSSGDIGDSYVSWYQQKPGQAPRLVIYADDQRPSGIPDRFSGSGSGTDFTLTISRLEPEDFAVYYCQSYDINIDIVFGGGTKVEIKGTVAAPSVFIFPPSDEQLKSGTASVVCLLNNFYPREAKVQWKVDNALQSGNSQESVTEQDSKDSTYSLSSTLTLSKADYEKHKVYACEVTHQGLSSPVTKSFNRGEC	–	–	–	–	–	HMVEC-d hVEGF165 Potency IC50 [1]: 0.06 nM; NIH-3T3 hPDGF-BB Potency IC50 [2]: 0.152 nM; IC50 [3]: 0.092 nM
BDI-5G2-F9 (antibody, IgG2b, V domains shown, Rat hybridoma monoclonal antibody) VH: QVTLKESGPGILQPSQTLSLTCTFSGFSLSTFGMGVGWIRQPSGKGLEWLANIWWDDDKYYNPSLKNRLTISKDTSNSQAFLEITNVDTADTATYYCARISTGISSYYVMDAWGQGASVTVSS VL: QFTLTQPKSVSGSLRSTITIPCERSSGDIGDTYVSWYQQHLGRPPINVIYGNDQRPSEVSDRFSGSIDSSSNSASLTITNLQMDDEADYFCQSYDSDIDIVFGGGTKLTVL	0.923	0.741	1.06	–	–	–
BDI-1E1-D5 (antibody, IgG2b, V domains shown, Rat hybridoma monoclonal antibody) VH: EVKLQQSGDELVRPGASVKMSCKASGYTFTDYVMHWVKQSPGQGLEWIGTIIPLIDTTSYNQKFKGKATLTADKSSNTAYMELSRLTSEDSAVYYCARTSPYYYSSYDVMDAWGQGASVTVSS VL: NIQLTQSPSLLSASVGDRVTLSCKGSQNINNYLAWYQQKLGEAPKLLIYKTNNLQTGIPSRFSGCGSGTDYTLTISSLHSEDLATYYCYQYDNGYTFGAGTKLELK	1.06	> 5	> 10	–	–	–
BDI-6A3-A9 (antibody, IgG2b, V domains shown, Rat hybridoma monoclonal antibody) VH: EVQLVESGGGLVQPGRSLKFSCAASGFSFSDSAMAWVRQAPKKGLEWVATIIYDGSGTYYRDSVKGRFTISRDNAKSTLYLQMDSLRSEDTATYYCARLGFNYGNYGYYVMDAWGQGASVTVSS VL: QFTLTQPKSVSGSLRNTITIPCERSSGDIGDSYVSWYQQHLGRPPINVIFADDQRPSEVSDRFSGSIDSSSNSASLTITNLQMDDEADYFCQSYDSNIDINIVFGGGTKLTVL	1.62	> 5	3.23	–	–	–
4G8.3-GS-9E8.4 DVD-Ig (PR-1564010) (bispecific antibody, human IgG1, kappa, L234A L235A, DVD-Ig, outer hBDB-4G8.3 (VEGF), inner hBDI-9E8.4 (PDGF); IgG1 L234A, L235A / kappa) heavy: not shown light: DTVLTQSPATLSLSPGERATLSCRASESVSTHMHWYQQKPGQAPRLLIYGASNLESGVPARFSGSGSGTDFTLTISSLEPEDFAVYFCQQSWNDPFTFGQGTKLEIKRGGSGGGGSGEFVLTQSPGTLSLSPGERATLSCERSSGDIGDSYVSWYQQKPGQAPRLVIYADDQRPSGIPDRFSGSGSGTDFTLTISRLEPEDFAVYYCQSYDINIDIVFGGGTKVEIKGTVAAPSVFIFPPSDEQLKSGTASVVCLLNNFYPREAKVQWKVDNALQSGNSQESVTEQDSKDSTYSLSSTLTLSKADYEKHKVYACEVTHQGLSSPVTKSFNRGEC	–	–	–	–	–	HMVEC-d hVEGF165 Potency IC50 [1]: 0.096 nM; IC50 [3]: 0.126 nM
hBDI-5H1.7 (antibody, V domains shown, Humanized IgG) VH: EVTLKESGPALVKPTQTLTLTCTFSGFSLSTFGMGVGWIRQPPGKALEWLANIWWDDDKYYNPSLKNRLTISKDTSKNQAVLTITNMDPVDTATYYCARISTGISSYYVMDAWGQGTTVTVSS VL: EIVLTQSPGTLSLSPGERATLSCERSSGDIGDTYVSWYQQKPGQAPRLLIYGNDQRPSGIPDRFSGSGSGTDFTLTISRLEPEDFAVYYCQSYDSDIDIVFGGGTKVEIK	–	–	–	≥ 1e+07	≤ 2.9	–

The next lines start with results.

Phospho-Tyr751/hPDGF-BB Neutralization [4] [nM]	huPDGF-BB Neutralization Potency (nM) in NIH-3T3 Cells [4] [nM]	IC50 [5] [nM]	kon (Human PDGF-BB [6]) [M⁻¹ s⁻¹]	Kd (Human PDGF-BB [7]) [nM]	Binder	further results
–	–	–	≥ 1e+07	≤ 0.49	hBDI-5H1.13 (antibody, V domains shown, Humanized IgG) VH: EVTLKESGPALVKPTQTLTLTCTFSGFSLSTFGMGVGWIRQPPGKALEWLANIWWDDDKYYNPSLKNRLTISKDTSKNQAVLTITNMDPVDTATYYCARISTGISSYYVMDAWGQGTTVTVSS VL: DFQLTQSPSSLSASVGDRVTITCERSSGDIGDTYVSWYQQKPGKAPKNVIYGNDQRPSGVPSRFSGSGSGNSATLTISSLQPEDFATYFCQSYDSDIDIVFGQGTKVEIK	–
–	–	–	≥ 1e+07	≤ 0.017	hBDI-9E8.8 (antibody, V domains shown, Humanized IgG) VH: EVTLRESGPALVKPTQTLTLTCTFSGFSLSTYGMGVGWIRQPPGKGLEWLANIWWDDDKYYNPSLKNRLTISKDTSKNQAVLTITNMDPVDTATYYCARIESIGTTYSFDYWGQGTMVTVSS VL: EFVLTQSPGTLSLSPGERATLSCERSSGDIGDSYVSWYQQKPGQAPRLVIYADDQRPSGIPDRFSGSGSGTDFTLTISRLEPEDFAVYYCQSYDINIDIVFGGGTKVEIK	–
–	–	–	≥ 1e+07	≤ 0.1	hBDI-9E8.13 (antibody, V domains shown, Humanized IgG) VH: EVTLRESGPALVKPTQTLTLTCTFSGFSLSTYGMGVGWIRQPPGKGLEWLANIWWDDDKYYNPSLKNRLTISKDTSKNQAVLTITNMDPVDTATYYCARIESIGTTYSFDYWGQGTMVTVSS VL: DFQLTQSPSSLSASVGDRVTITCERSSGDIGDSYVSWYQQKPGKAPKNVIYADDQRPSGVPSRFSGSGSGNSASLTISSLQPEDFATYYCQSYDINIDIVFGQGTKVEIK	–
–	–	–	≥ 1e+07	≤ 72	hBDI-5H1.8 (antibody, V domains shown, Humanized IgG) VH: EVTLKESGPALVKPTQTLTLTCTFSGFSLSTFGMGVGWIRQPPGKALEWLANIWWDDDKYYNPSLKNRLTISKDTSKNQAVLTITNMDPVDTATYYCARISTGISSYYVMDAWGQGTTVTVSS VL: EFVLTQSPGTLSLSPGERATLSCERSSGDIGDTYVSWYQQKPGQAPRLVIYGNDQRPSGIPDRFSGSGSGTDFTLTISRLEPEDFAVYYCQSYDSDIDIVFGGGTKVEIK	–
